# Experimental data taken from IntAct's records for PubMed 21889351.
# B1: Programmed cell death 6-interacting protein (Homo sapiens), Q8WUM4 (parent)
# chain: MATFISVQLKKTSEVDLAKPLVKFIQQTYPSGGEEQAQYCRAAEELSKLRRAAVGRPLDKHEGALETLLRYYDQICSIEPKFPFSENQICLTFTWKDAFDKGSLFGGSVKLALASLGYEKSCVLFNCAALASQIAAEQNLDNDEGLKIAAKHYQFASGAFLHIKETVLSALSREPTVDISPDTVGTLSLIMLAQAQEVFFLKATRDKMKDAIIAKLANQAADYFGDAFKQCQYKDTLPKEVFPVLAAKHCIMQANAEYHQSILAKQQKKFGEEIARLQHAAELIKTVASRYDEYVNVKDFSDKINRALAAAKKDNDFIYHDRVPDLKDLDPIGKATLVKSTPVNVPISQKFTDLFEKMVPVSVQQSLAAYNQRKADLVNRSIAQMREATTLANGVLASLNLPAAIEDVSGDTVPQSILTKSRSVIEQGGIQTVDQLIKELPELLQRNREILDESLRLLDEEEATDNDLRAKFKERWQRTPSNELYKPLRAEGTNFRTVLDKAVQADGQVKECYQSHRDTIVLLCKPEPELNAAIPSANPAKTMQGSEVVNVLKSLLSNLDEVKKEREGLENDLKSVNFDMTSKFLTALAQDGVINEEALSVTELDRVYGGLTTKVQESLKKQEGLLKNIQVSHQEFSKMKQSNNEANLREEVLKNLATAYDNFVELVANLKEGTKFYNELTEILVRFQNKCSDIVFARKTERDELLKDLQQSIAREPSAPSIPTPAYQSSPAGGHAPTPPTPAPRTMPPTKPQPPARPPPPVLPANRAPSATAPSPVGAGTAAPAPSQTPGSAPPPQAQGPPYPTYPGYPGYCQMPMPMGYNPYAYGQYNMPYPPVYHQSPGQAPYPGPQQPSYPFPQPPQQSYYPQQ
# partner: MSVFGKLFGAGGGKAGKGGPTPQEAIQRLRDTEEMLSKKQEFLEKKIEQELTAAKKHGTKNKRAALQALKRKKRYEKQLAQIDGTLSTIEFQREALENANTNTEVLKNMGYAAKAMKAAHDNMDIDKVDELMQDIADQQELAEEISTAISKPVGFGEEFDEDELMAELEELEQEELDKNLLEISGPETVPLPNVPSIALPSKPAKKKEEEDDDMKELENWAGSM
# Variants of: B1
# Settings: with chm4b_human CHMP4B
row,Variant,effect of a mutation on the interaction
1,I212D,disrupting interaction
